In patent publication US20240190962A1 (IMMUNOWAKE, published 2024):
Where a chain is given by its changes, count along the chain named. In names and notes the source's numbering stands.

T1: human IL-2 receptor (IL-2Rα, IL-2Rβ, IL-2Rγ) (human, UniProt P01589 22-272; P14784 27-551; P31785 23-369)
T1 sequence (looked up) 1: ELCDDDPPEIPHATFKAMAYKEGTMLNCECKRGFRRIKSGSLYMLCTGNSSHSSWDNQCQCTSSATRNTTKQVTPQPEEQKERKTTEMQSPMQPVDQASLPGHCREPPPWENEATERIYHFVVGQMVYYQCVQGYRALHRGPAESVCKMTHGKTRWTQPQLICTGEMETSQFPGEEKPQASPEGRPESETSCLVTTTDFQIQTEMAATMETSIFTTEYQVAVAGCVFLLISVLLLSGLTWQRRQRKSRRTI
T1 sequence (looked up) 2: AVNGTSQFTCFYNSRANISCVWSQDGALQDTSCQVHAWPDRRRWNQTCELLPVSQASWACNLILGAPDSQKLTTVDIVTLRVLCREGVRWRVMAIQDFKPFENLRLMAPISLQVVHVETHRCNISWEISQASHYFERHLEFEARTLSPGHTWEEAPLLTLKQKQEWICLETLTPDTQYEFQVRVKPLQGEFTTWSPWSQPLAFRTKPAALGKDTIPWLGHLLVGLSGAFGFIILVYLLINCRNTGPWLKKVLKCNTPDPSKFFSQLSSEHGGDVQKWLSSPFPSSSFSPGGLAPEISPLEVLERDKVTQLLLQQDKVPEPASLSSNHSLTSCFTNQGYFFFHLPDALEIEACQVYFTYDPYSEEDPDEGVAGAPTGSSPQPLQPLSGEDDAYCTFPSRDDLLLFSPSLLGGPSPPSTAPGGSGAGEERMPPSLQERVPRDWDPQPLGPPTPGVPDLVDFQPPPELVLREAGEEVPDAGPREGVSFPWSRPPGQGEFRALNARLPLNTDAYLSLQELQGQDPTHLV
T1 sequence (looked up) 3: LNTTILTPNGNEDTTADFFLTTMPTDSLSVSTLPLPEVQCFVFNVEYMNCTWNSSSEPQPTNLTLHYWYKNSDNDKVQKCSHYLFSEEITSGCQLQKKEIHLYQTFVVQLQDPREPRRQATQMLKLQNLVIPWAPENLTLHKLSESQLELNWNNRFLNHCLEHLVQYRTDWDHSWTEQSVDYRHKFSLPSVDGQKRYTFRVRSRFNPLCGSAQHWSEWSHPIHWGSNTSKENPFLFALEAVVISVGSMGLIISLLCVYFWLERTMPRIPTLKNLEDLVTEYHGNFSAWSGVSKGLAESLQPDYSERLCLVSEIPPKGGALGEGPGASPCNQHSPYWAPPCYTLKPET

B1: anti-CD3 antibody (made in-house) (antibody, V domains shown)
VH: EVQLVESGGGLVQPGRSLRLSCTASGFTFSYFWMNWVRQAPGKGLEWVGEIRLRSDNYATHYAESVKGRFTISRDDSKSIAYLQMNSLKTEDTALYYCTRDWEFTYWGQGTTVTVSS
VL: EIVMTQSPGTLSLSPGESATLSCSASLSVSFMHWFQQKPGHAPRLLIYRTSNLASGVPDRFSGSGSGTDFTLTISRLEPEDFAVYYCQQRSSDPPTFGQGTRLEIKR
B2: IL-2 mutant-Fc-CD3 Ab (other, not shown: a dimerising Fc or GST)
light: EIVMTQSPGTLSLSPGESATLSCSASLSVSFMHWFQQKPGHAPRLLIYRTSNLASGVPDRFSGSGSGTDFTLTISRLEPEDFAVYYCQQRSSDPPTFGQGTRLEIKRTVAAPSVFIFPPSDEQLKSGTASVVCLLNNFYPREAKVQWKVDNALQSGNSQESVTEQDSKDSTYSLSSTLTLSKADYEKHKVYACEVTHQGLSSPVTKSFNRGEC
heavy: EVQLVESGGGLVQPGRSLRLSCTASGFTFSYFWMNWVRQAPGKGLEWVGEIRLRSDNYATHYAESVKGRFTISRDDSKSIAYLQMNSLKTEDTALYYCTRDWEFTYWGQGTTVTVSSAS
chain: APTSSSTKKTQLQLEHLLLDLQMILNGINNYKNPKLTDMLTFEFYMPKKATELKHLQCLERELKPLEEVLNLAQSKNFHLRPRDLISNINVIVLELKGSETTFMCEYADETATIVEFLNRWITFCQSIISTLT
B3: Fab-IL-12(E59A)-Fc-CD4 Ab (other)
light: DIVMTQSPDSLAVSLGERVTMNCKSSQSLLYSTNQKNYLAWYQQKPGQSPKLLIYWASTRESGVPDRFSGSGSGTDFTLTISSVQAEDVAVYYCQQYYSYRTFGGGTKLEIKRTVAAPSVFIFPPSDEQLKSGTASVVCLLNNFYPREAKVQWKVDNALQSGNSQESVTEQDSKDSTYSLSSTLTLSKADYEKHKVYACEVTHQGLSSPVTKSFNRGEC
heavy 1: QVQLQQSGPEVVKPGASVKMSCKASGYTFTSYVIHWVRQKPGQGLDWIGYINPYNDGTDYDEKFKGKATLTSDTSTSTAYMELSSLRSEDTAVYYCAREKDNYATGAWFAYWGQGTLVTVSSASTKGPSVFPLAPSSKSTSGGTAALGCLVKDYFPEPVTVSWNSGALTSGVHTFPAVLQSSGLYSLSSVVTVPSSSLGTQTYICNVNHKPSNTKVDKKVEPKSCDKTHTCPPCPAPEKKGGPSVFLFPPKPKDTLMISRTPEVTCVVVDVSHEDPEVKFNWYVDGVEVHNAKTKPREEQYNSTYRVVSVLTVLHQDWLNGKEYKCKVSNKALPAPIEKTISKAKGQPREPQVYVLPPSREEMTKNQVSLLCLVKGFYPSDIAVEWESNGQPENRYMTWPPVLDSDGSFFLYSKLTVDKSRWQQGNVFSCSVMHEALHNHYTQKSLSLSPGK
heavy 2: QVQLQQSGPEVVKPGASVKMSCKASGYTFTSYVIHWVRQKPGQGLDWIGYINPYNDGTDYDEKFKGKATLTSDTSTSTAYMELSSLRSEDTAVYYCAREKDNYATGAWFAYWGQGTLVTVSSASTKGPSVFPLAPSSKSTSGGTAALGCLVKDYFPEPVTVSWNSGALTSGVHTFPAVLQSSGLYSLSSVVTVPSSSLGTQTYICNVNHKPSNTKVDKKVEPKSCDKPGSGIWELKKDVYVVELDWYPDAPGEMVVLTCDTPEEDGITWTLDQSSEVLGSGKTLTIQVKAFGDAGQYTCHKGGEVLSHSLLLLHKKEDGIWSTDILKDQKEPKNKTFLRCEAKNYSGRFTCWWLTTISTDLTFSVKSSRGSSDPQGVTCGAATLSAERVRGDNKEYEYSVECQEDSACPAAEESLPIEVMVDAVHKLKYENYTSSFFIRDIIKPDPPKNLQLKPLKNSRQVEVSWEYPDTWSTPHSYFSLTFCVQVQGKSKREKKDRVFTDKTSATVICRKNASISVRAQDRYYSSSWSEWASVPCSGGGGSGGGGSGGGGSGGGGSGRNLPVATPDPGMFPCLHHSQNLLRAVSNMLQKARQTLEFYPCTSEEIDHEDITKDKTSTVEACLPLELTKNESCLNSRETSFITNGSCLASRKTSFMMALCLSSIYEDLKMYQVEFKTMNAKLLMDPKRQIFLDQNMLAVIDELMQALNFNSETVPQKSSLEEPDFYKTKIKLCILLHAFRIRAVTIDRVMSYLNASDKTHTCPPCPAPEDEGGPSVFLFPPKPKDTLMISRTPEVTCVVVDVSHEDPEVKFNWYVDGVEVHNAKTKPREEQYNSTYRVVSVLTVLHQDWLNGKEYKCKVSNKALPAPIEKTISKAKGQPREPQVYVYPPSREEMTKNQVSLTCLVKGFYPSDIAVEWESNGQPENNYKTTPPVLDEDGSFALVSKLTVDKSRWQQGNVFSCSVMHEALHNHYTQKSLSLSPGK
notes: copies: 2 + 1 + 1
B4: Fab-IL-12(F60A)-Fc-CD4 Ab (other)
light: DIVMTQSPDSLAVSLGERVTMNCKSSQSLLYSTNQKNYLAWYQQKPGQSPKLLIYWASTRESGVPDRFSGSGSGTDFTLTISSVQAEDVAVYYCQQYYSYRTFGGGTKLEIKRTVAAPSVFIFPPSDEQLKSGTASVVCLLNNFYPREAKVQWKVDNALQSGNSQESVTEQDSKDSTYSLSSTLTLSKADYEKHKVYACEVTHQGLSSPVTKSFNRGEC
heavy 1: B3 heavy 1
heavy 2: B3 heavy 2 with A290E, F291A
notes: copies: 2 + 1 + 1
B5: Fab-IL-12(E59A/F60A)-Fc-CD4 Ab (other)
light: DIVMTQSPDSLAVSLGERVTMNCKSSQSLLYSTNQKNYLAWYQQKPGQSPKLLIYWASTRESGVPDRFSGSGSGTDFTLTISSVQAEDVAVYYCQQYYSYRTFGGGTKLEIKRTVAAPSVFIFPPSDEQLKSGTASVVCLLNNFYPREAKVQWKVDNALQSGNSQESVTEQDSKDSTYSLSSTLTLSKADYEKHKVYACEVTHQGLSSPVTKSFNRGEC
heavy 1: B3 heavy 1
heavy 2: B3 heavy 2 with F291A
B6: Fab-IL-23(WT)-Fc-CD4 Ab (other)
light: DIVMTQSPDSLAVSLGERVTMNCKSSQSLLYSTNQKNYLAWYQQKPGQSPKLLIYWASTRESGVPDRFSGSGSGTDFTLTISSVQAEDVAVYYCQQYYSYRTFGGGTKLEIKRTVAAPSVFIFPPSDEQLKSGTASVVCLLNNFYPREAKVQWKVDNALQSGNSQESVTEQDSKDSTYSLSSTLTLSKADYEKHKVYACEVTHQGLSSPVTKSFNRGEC
heavy 1: B3 heavy 1
heavy 2: QVQLQQSGPEVVKPGASVKMSCKASGYTFTSYVIHWVRQKPGQGLDWIGYINPYNDGTDYDEKFKGKATLTSDTSTSTAYMELSSLRSEDTAVYYCAREKDNYATGAWFAYWGQGTLVTVSSASTKGPSVFPLAPSSKSTSGGTAALGCLVKDYFPEPVTVSWNSGALTSGVHTFPAVLQSSGLYSLSSVVTVPSSSLGTQTYICNVNHKPSNTKVDKKVEPKSCDKPGSGIWELKKDVYVVELDWYPDAPGEMVVLTCDTPEEDGITWTLDQSSEVLGSGKTLTIQVKEFGDAGQYTCHKGGEVLSHSLLLLHKKEDGIWSTDILKDQKEPKNKTFLRCEAKNYSGRFTCWWLTTISTDLTFSVKSSRGSSDPQGVTCGAATLSAERVRGDNKEYEYSVECQEDSACPAAEESLPIEVMVDAVHKLKYENYTSSFFIRDIIKPDPPKNLQLKPLKNSRQVEVSWEYPDTWSTPHSYFSLTFCVQVQGKSKREKKDRVFTDKTSATVICRKNASISVRAQDRYYSSSWSEWASVPCSGGGGSGGGGSGGGGSGGGGSGRAVPGGSSPAWTQCQQLSQKLCTLAWSAHPLVGHMDLREEGDEETTNDVPHIQCGDGCDPQGLRDNSQFCLQRIHQGLIFYEKLLGSDIFTGEPSLLPDSPVGQLHASLLGLSQLLQPEGHHWETQQIPSLSPSQPWQRLLLRFKILRSLQAFVAVAARVFAHGAATLSPDKTHTCPPCPAPEDEGGPSVFLFPPKPKDTLMISRTPEVTCVVVDVSHEDPEVKFNWYVDGVEVHNAKTKPREEQYNSTYRVVSVLTVLHQDWLNGKEYKCKVSNKALPAPIEKTISKAKGQPREPQVYVYPPSREEMTKNQVSLTCLVKGFYPSDIAVEWESNGQPENNYKTTPPVLDEDGSFALVSKLTVDKSRWQQGNVFSCSVMHEALHNHYTQKSLSLSPGK
notes: copies: 2 + 1 + 1
B7: Fab-IL-23(E59A)-Fc-CD4 Ab (other)
light: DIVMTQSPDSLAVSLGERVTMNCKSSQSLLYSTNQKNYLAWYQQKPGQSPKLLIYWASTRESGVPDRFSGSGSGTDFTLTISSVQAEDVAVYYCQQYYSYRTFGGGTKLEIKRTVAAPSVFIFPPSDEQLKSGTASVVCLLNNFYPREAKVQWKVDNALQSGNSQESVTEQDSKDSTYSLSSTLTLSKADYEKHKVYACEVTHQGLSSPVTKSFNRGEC
heavy 1: B3 heavy 1
heavy 2: B6 heavy 2 with E290A
notes: copies: 2 + 1 + 1
B8: Fab-IL-23(E59A/F60A)-Fc-CD4 Ab (other)
light: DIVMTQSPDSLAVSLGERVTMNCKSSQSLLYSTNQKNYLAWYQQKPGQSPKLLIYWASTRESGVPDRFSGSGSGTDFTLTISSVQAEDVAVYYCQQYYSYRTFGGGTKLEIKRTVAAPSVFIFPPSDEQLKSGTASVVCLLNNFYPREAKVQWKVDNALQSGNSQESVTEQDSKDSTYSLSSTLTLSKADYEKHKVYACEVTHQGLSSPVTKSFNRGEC
heavy 1: B3 heavy 1
heavy 2: B6 heavy 2 with E290A, F291A
B9: Fab-IL-23(F60A)-Fc-CD4 Ab (other)
light: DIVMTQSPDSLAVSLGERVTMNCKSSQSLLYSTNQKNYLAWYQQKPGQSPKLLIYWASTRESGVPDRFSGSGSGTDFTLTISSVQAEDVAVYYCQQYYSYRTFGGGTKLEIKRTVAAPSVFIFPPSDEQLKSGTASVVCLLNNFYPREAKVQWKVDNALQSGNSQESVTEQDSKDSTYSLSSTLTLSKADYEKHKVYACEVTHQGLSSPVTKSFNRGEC
heavy 1: B3 heavy 1
heavy 2: B6 heavy 2 with F291A
notes: copies: 2 + 1 + 1

Target: T1, human IL-2 receptor (IL-2Rα, IL-2Rβ, …)
Assay: cell-based or functional assay

Percent IL-2 signal transduction (HEK-IL-2 reporter assay)	Percent T-cell proliferation (PBMC proliferation assay)	Binder
0%	0%	B1
11%	39%	B2

Target: human IL-12 receptor complex (IL-12Rβ1, IL-12Rβ2) (human, UniProt P42701 24-662; Q99665 24-862)
Sequence (Q99665 24-862, chain 2 of 2, other chains not shown): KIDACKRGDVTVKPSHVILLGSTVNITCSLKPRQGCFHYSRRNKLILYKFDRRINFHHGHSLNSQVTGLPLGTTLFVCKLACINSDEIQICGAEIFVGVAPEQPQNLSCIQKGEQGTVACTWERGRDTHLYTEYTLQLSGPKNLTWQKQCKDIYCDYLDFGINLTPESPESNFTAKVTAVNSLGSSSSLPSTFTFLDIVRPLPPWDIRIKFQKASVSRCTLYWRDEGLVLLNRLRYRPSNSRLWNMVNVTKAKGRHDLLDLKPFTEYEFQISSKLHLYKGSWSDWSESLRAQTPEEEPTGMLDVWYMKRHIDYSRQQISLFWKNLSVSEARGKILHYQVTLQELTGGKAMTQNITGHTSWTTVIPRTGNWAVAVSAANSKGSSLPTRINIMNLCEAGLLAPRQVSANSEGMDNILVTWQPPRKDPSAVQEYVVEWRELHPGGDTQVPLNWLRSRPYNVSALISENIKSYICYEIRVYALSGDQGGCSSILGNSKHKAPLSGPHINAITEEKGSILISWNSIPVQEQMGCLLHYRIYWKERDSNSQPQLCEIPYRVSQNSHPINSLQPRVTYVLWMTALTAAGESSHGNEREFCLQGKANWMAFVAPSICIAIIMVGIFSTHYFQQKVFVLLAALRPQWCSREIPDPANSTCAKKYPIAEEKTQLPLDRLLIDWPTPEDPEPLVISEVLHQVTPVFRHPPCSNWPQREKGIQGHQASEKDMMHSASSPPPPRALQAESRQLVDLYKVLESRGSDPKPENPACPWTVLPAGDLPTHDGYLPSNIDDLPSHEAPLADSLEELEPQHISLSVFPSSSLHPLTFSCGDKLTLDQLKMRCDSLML
Assay: cell-based or functional assay

IL-12 biological activity (IFN-γ release), CD4+ T cells	IL-12 biological activity (IFN-γ release), CD8+ T cells	Binder
29.8%	1.1%	B3
32.2%	1.5%	B4
8.2%	0%	B5

Target: T2, CD8 on CD8+ T cells (UniProt P01732 22-235)
T2 construct: whole, on cells
T2 sequence (P01732 22-235): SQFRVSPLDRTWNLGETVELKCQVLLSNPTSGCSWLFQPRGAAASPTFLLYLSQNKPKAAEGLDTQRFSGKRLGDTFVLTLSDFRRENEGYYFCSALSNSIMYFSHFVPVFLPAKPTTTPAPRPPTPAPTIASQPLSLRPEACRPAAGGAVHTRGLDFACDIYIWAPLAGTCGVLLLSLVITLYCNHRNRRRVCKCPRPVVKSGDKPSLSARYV
Assay: FACS

binding result	Binder
no binding	B3
no binding	B6
no binding	B7
no binding	B4
no binding	B8
no binding	B9
no binding	B5

Target: IL-23 receptor complex (IL-12Rβ1, IL-23R) (UniProt P42701 24-662; Q5VWK5 24-629, limits assumed)
Sequence (Q5VWK5 24-629 limits assumed, chain 2 of 2, other chains not shown): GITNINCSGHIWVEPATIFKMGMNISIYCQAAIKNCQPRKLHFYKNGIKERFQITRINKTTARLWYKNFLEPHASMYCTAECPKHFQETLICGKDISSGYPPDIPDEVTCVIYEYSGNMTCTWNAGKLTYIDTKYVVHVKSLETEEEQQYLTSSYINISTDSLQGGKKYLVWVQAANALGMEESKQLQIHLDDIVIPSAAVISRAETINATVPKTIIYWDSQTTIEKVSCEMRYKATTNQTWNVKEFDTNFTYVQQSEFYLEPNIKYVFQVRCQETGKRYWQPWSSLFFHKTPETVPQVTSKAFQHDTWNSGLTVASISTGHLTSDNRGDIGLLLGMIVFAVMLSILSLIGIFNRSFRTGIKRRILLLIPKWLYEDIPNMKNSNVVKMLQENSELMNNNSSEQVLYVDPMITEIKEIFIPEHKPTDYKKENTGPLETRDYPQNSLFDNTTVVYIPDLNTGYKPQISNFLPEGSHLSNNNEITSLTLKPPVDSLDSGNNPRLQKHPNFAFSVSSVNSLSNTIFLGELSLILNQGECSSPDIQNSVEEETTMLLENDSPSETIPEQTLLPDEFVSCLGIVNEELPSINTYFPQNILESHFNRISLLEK
Assay: cell-based or functional assay

IL-23 biological activity (IFN-γ release), CD4+ T cells	IL-23 biological activity (IFN-γ release), CD8+ T cells	Binder
34%	21%	B6
24%	2%	B7
6.8%	0%	B8
29%	1.5%	B9
